Assay results reported in paper PMC9797636, “Transcriptomic and enzymatic analysis reveals the roles of glutamate dehydrogenase in Corynebacterium glutamicum” (AMB Express, 2022).

Assays:
Test in all cases: purified protein
Assay type in all cases: biochemical, Corynebacterium glutamicum
purified protein [1] = substrate: O=C(O)CCC(=O)C(=O)O; settings: reductive amination, NADPH, NH4Cl, Tris-HCl pH 7.0, 25 °C, pH 7.0
purified protein [2] = substrate: NC(=O)C1=CN([C@@H]2O[C@H](COP(=O)(O)OP(=O)(O)OC[C@H]3O[C@@H](n4cnc5c(N)ncnc54)[C@H](OP(=O)(O)O)[C@@H]3O)[C@@H](O)[C@H]2O)C=CC1; settings: reductive amination, 2-oxoglutarate, NH4Cl, Tris-HCl pH 7.0, 25 °C, pH 7.0
purified protein [3] = substrate: NC(=O)c1ccc[n+]([C@@H]2O[C@H](COP(=O)(O)OP(=O)(O)OC[C@H]3O[C@@H](n4cnc5c(N)ncnc54)[C@H](OP(=O)(O)O)[C@@H]3O)[C@@H](O)[C@H]2O)c1; settings: oxidative deamination, L-glutamate, Tris-HCl, 25 °C

B1: GdhA (Corynebacterium glutamicum ATCC 13032) (protein)
chain: MTVDEQVSNYYDMLLKRNAGEPEFHQAVAEVLESLKIVLEKDPHYADYGLIQRLCEPERQLIFRVPWVDDQGQVHVNRGFRVQFNSALGPYKGGLRFHPSVNLGIVKFLGFEQIFKNSLTGLPIGGGKGGSDFDPKGKSDLEIMRFCQSFMTELHRHIGEYRDVPAGDIGVGGREIGYLFGHYRRMANQHESGVLTGKGLTWGGSLVRTEATGYGCVYFVSEMIKAKGESISGQKIIVSGSGNVATYAIEKAQELGATVIGFSDSSGWVHTPNGVDVAKLREIKEVRRARVSVYADEVEGATYHTDGSIWDLKCDIALPCATQNELNGENAKTLADNGCRFVAEGANMPSTPEAVEVFRERDIRFGPGKAANAGGVATSALEMQQNASRDSWSFEYTDERLQVIMKNIFKTCAETAAEYGHENDYVVGANIAGFKKVADAMLAQGVI
- Km (purified protein [1]): 2534 µM
- Vmax (purified protein [1]): 0.809 µmol/min/mg
- kcat (purified protein [1]): 0.135 s⁻¹
- kcat/Km (purified protein [1]): 53.2 M⁻¹ s⁻¹
- Km (purified protein [2]): 166 µM
- Vmax (purified protein [2]): 1.54 µmol/min/mg
- kcat (purified protein [2]): 0.257 s⁻¹
- kcat/Km (purified protein [2]): 1540 M⁻¹ s⁻¹
- Km (purified protein [3]): 505 µM
- Vmax (purified protein [3]): 1.34 µmol/min/mg
- kcat (purified protein [3]): 0.224 s⁻¹
- kcat/Km (purified protein [3]): 443 M⁻¹ s⁻¹
